Results taken from publication PMC7188906.

B1: human ACKR4-EYFP [human] / fluorescently labeled human CCL19^Dy649P1 [modified: Dy649P1 (as CoA conjugate) attached site-specifically to the S6-tag by the phosphopantetheinyl transferase Sfp; Dy649P1 (as CoA conjugate) … (parent)
chain 1: GTNDAEDCCLSVTQKPIPGYIVRNFHYLLIKDGCRVPAVVFTTLRGRQLCAPPDQPWVERIIQRLQRTSAKMKRRSS
chain 2: MALEQNQSTDYYYEENEMNGTYDYSQYELICIKEDVREFAKVFLPVFLTIVFVIGLAGNSMVVAIYAYYKKQRTKTDVYILNLAVADLLLLFTLPFWAVNAVHGWVLGKIMCKITSALYTLNFVSGMQFLACISIDRYVAVTKVPSQSGVGKPCWIICFCVWMAAILLSIPQLVFYTVNDNARCIPIFPRYLGTSMKALIQMLEICIGFVVPFLIMGVCYFITARTLMKMPNIKISRPLKVLLTVVIVFIVTQLPYNIVKFCRAIDIIYSLITSCNMSKRMDIAIQVTESIALFHSCLNPILYVFMGASFKNYVMKVAKKYGSWRRQRQSVEEFPFDSEGPTEPTSTFSI

Variants of: B1
Test: flow cytometry on cells
Conditions: with fluorescently labeled human CCL19^Dy649P1 [modified: Dy649P1 (as CoA conjugate) attached site-specifically to the S6-tag by the phosphopantetheinyl transferase; 25 nM CCL19Dy649P1 at 8°C; HeLa cells; read off a plot

percent of parent | Variant
85 % of wt | chain 2 S146A
83 % of wt | chain 2 S330A
110 % of wt | chain 2 Y79F
93 % of wt | chain 2 Y68F
120 % of wt | chain 2 S309A S323A S330A
85 % of wt | chain 2 S148A
72 % of wt | chain 2 Y138F
87 % of wt | chain 2 S323A
83 % of wt | chain 2 T226A
90 % of wt | chain 2 T142A T226A
90 % of wt | chain 2 T142A
110 % of wt | chain 2 T142A T226A S309A S323A S330A
90 % of wt | chain 2 S236A
110 % of wt | chain 2 S309A
